Km data for one protein are collected here from article PMC4570970.

Substrate in the series: CC(C)=CCC/C(C)=C/CC/C(C)=C/CO[P@@](=O)(O)OP(=O)(O)O
Briefly: purified protein. Particulars: Mg2+ active site.

As usually defined, the Km is the substrate concentration at which the rate is half of its maximum.

B1: 5-epi-aristolochene synthase (TEAS) (Nicotiana tabacum) (protein)
chain: MASAAVANYEEEIVRPVADFSPSLWGDQFLSFSIKNQVAEKYAKEIEALKEQTRNMLLATGMKLADTLNLIDTIERLGISYHFEKEIDDILDQIYNQNSNCNDLCTSALQFRLLRQHGFNISPEIFSKFQDENGKFKESLASDVLGLLNLYEASHVRTHADDILEDALAFSTIHLESAAPHLKSPLREQVTHALEQCLHKGVPRVETRFFISSIYDKEQSKNNVLLRFAKLDFNLLQMLHKQELAQVSRWWKDLDFVTTLPYARDRVVECYFWALGVYFEPQYSQARVMLVKTISMISIVDDTFDAYGTVKELEAYTDAIQRWDINEIDRLPDYMKISYKAILDLYKDYEKELSSAGRSHIVCHAIERMKEVVRNYNVESTWFIEGYTPPVSEYLSNALATTTYYYLATTSYLGMKSATEQDFEWLSKNPKILEASVIICRVIDDTATYEVEKSRGQIATGIECCMRDYGISTKEAMAKFQNMAETAWKDINEGLLRPTPVSTEFLTPILNLARIVEVTYIHNLDGYTHPEKVLKPHIINLLVDSIKI
For the protein B1, the Km was determined as 4.47 µM.
